{"source": "paper PMC5843355", "about": "“Evaluation of the Trypanosoma brucei 6-oxopurine salvage pathway as a potential target for drug discovery” (PLoS Neglected Tropical Diseases, 2018)", "proteins": {"B1": {"name": "HGXPRT (Trypanosoma brucei brucei TREU927) (protein)", "chain": "HSGHPLKPNFVGRDADGNVTVDGRSYPMAESVVATESTIHRSMKEMAQTLANAYKTLKHRDTHNKGNSALAPITDENPLIIISVLKGSYIFTADMVRYLGDCGLPNVVDFIRITSYRGTTKSSGTVQVLDNLRFTELTGKHVLIMEDIADTGRTMKLLVEKIRREYRPASLKVCVLVDKPGGRVVDFKPEFVCLTAPTRYVVGYGFEVNDRYRNYRHVFVLKPEYAKRYPSKL"}, "B2": {"name": "HGPRT-I (Trypanosoma brucei brucei) (protein)", "chain": "EPACKYDFATSVLFTEAELHTRMRGVAQRIADDYSNCNLKPLENPLVIVSVLKGSFVFTADMVRILGDFGVPTRVEFLRASSYGHDTKSCGRVDVKADGLCDIRGKHVLVLEDILDTALTLREVVDSLKKSEPASIKTLVAIDKPGGRKIPFTAEYVVADVPNVFVVGYGLDYDQSYREVRDVVILKPSVYETWGKELERRKAAGEAKR", "notes": "6x His-tag (N); AcTEV cleavage site (N); made in house; host or cells: E. coli One Shot BL21(DE3)"}, "B3": {"name": "HGPRT-II (Trypanosoma brucei brucei TREU927) (protein)", "chain": "B2 chain with I48V, K53R, G205V, E206K, R209L"}}, "key": {"[1]": {"substrate": "O=c1[nH]c(=O)c2[nH]cnc2[nH]1", "experiment": "purified protein, by the assay type", "details": "other: HGXPRT, PRib-PP 1 mM, pH 8.4, 25°C"}, "[2]": {"substrate": "Nc1nc2nc[nH]c2c(=O)[nH]1", "experiment": "purified protein, by the assay type", "details": "PRib-PP 1 mM, pH 8.4, 25°C"}, "[3]": {"substrate": "O=c1[nH]cnc2nc[nH]c12", "experiment": "purified protein, by the assay type", "details": "PRib-PP 1 mM, pH 8.4, 25°C"}, "[4]": {"substrate": "Nc1nc2nc[nH]c2c(=O)[nH]1", "experiment": "Steady-state kinetic constants of 6-oxopurine bases for HGPRT-I", "type": "biochemical, Trypanosoma brucei", "details": "other: HGPRT-I, PRib-PP 1 mM, pH 8.4, 25°C", "protocol": "The concentration of enzyme in the assay (varied from 75–200 μg/ml for the two enzymes) and the concentration of PRib-PP was kept at 1 mM. The reaction was carried out using a 1.0 cm path length with a UV Visible spectrometer 1601 (Shimadzu) in the reaction buffer (0.1 M Tris, pH 8.4; 0.11 M MgCl2; at 25°C)."}}, "note": "Positions count from the first letter of the chain named. Values joined by “and” are separate entries in the source; they are usually repeats but may differ in a detail not shown here. Equal values may be shown once.", "data": [{"protein": "B1", "values": [{"measurement": "Km", "setting": "[1]", "result": "31.9 ± 7.5", "unit": "µM"}, {"measurement": "kcat", "setting": "[1]", "result": 3.66, "unit": "s⁻¹"}, {"measurement": "kcat/Km", "setting": "[1]", "result": 110000, "unit": "M⁻¹ s⁻¹"}, {"measurement": "Km", "setting": "[2]; other: HGXPRT", "result": "32 ± 4.8", "unit": "µM"}, {"measurement": "Km", "setting": "[3]; other: HGXPRT", "result": "30.6 ± 7.8", "unit": "µM"}, {"measurement": "kcat", "setting": "[3]; other: HGXPRT", "result": 2.4, "unit": "s⁻¹"}, {"measurement": "kcat/Km", "setting": "[3]; other: HGXPRT", "result": 80000, "unit": "M⁻¹ s⁻¹"}]}, {"protein": "B2", "values": [{"measurement": "Km", "setting": "[4]", "result": "16 µM and 15.9 ± 4.8 µM"}, {"measurement": "kcat", "setting": "[4]", "result": 0.38, "unit": "s⁻¹"}, {"measurement": "kcat/Km", "setting": "[4]", "result": 20000, "unit": "M⁻¹ s⁻¹"}, {"measurement": "Km", "setting": "[3]; other: HGPRT-I", "result": "13.7 ± 2.9", "unit": "µM"}]}, {"protein": "B3", "values": [{"measurement": "Km", "setting": "[2]; other: HGPRT-II", "result": "7.1 ± 1.8", "unit": "µM"}, {"measurement": "Km", "setting": "[3]; other: HGPRT-II", "result": "4.2 ± 0.9", "unit": "µM"}, {"measurement": "kcat", "setting": "[3]; other: HGPRT-II", "result": 0.03, "unit": "s⁻¹"}, {"measurement": "kcat/Km", "setting": "[3]; other: HGPRT-II", "result": 7000, "unit": "M⁻¹ s⁻¹"}]}]}
